# Substitutions are numbered along the chain they refer to. Numbers in names are those of the source.
# T1: CaSR (wildtype) (Homo sapiens, UniProt P41180)
# T1 construct: expressed in transfected cells; host or cells: HEK293
# T1 sequence (P41180 20-1078): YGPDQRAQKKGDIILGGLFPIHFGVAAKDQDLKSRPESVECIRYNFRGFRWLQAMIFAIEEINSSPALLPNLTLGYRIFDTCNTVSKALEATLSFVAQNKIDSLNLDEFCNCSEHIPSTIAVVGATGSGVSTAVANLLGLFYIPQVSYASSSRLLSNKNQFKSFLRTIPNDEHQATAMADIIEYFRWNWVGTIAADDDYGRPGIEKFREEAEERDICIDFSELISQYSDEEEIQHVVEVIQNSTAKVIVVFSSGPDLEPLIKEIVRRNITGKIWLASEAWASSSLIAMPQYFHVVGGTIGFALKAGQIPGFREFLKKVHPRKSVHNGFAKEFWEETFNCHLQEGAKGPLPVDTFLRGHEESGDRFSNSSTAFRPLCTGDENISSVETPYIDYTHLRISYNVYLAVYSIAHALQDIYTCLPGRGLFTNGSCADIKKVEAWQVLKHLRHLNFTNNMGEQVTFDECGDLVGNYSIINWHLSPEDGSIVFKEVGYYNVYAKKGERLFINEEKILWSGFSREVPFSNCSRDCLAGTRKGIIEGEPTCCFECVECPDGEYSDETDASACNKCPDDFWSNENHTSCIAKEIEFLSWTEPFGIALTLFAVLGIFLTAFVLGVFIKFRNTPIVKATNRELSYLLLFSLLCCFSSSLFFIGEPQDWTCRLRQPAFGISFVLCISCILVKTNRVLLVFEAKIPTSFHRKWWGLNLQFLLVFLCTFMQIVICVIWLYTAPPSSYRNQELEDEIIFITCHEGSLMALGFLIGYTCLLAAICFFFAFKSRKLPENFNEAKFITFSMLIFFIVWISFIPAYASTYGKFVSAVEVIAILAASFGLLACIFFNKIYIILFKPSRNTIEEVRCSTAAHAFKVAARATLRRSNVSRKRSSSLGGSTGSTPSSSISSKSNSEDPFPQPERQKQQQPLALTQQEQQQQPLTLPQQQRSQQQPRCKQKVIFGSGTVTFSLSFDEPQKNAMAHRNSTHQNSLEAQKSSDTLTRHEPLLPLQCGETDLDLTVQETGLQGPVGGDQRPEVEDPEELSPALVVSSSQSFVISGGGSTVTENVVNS
# T2: CaSR E297K (Homo sapiens, UniProt P41180, E297K)
# T2 construct: expressed in transfected cells; host or cells: HEK293
# T2 sequence (P41180 20-1078 E297K): T1 sequence (P41180 20-1078) with E278K
# B1: MCD1: mCherry A145E/S147E/N196D/K198D/R216E, best mCherry-based variant, SEQ ID NO: 32 (protein)
# chain: EEDNMAIIKEFMRFKVHMEGSVNGHEFEIEGEGEGRPYEGTQTAKLKVTKGGPLPFAWDILSPQFMYGSKAYVKHPADIPDYLKLSFPEGFKWERVMNFEDGGVVTVTQDSSLQDGEFIYKVKLRGTNFPSDGPVMQKKTMGWEESEERMYPEDGALKGEIKQRLKLKDGGHYDAEVKTTYKAKKPVQLPGAYNVDIDLDITSHNEDYTIVEQYEEAEGRHSTGGMDELYK
# B2: mApple A145E/K198D/R216E: mApple variant, SEQ ID NO: 25; starting point of mitochondria indicator (protein)
# chain: EENNMAIIKEFMRFKVHMEGSVNGHEFEIEGEGEGRPYEAFQTAKLKVTKGGPLPFAWDILSPQFMYGSKVYIKHPADIPDYFKLSFPEGFRWERVMNFEDGGIIHVNQDSSLQDGVFIYKVKLRGTNFPSDGPVMQKKTMGWEESEERMYPEDGALKSEIKKRLKLKDGGHYAAEVKTTYKAKKPVQLPGAYIVDIDLDIVSHNEDYTIVEQYEEAEGRHSTGGMDELYK
# Experiments:
# CaSR (wildtype) = target: T1, CaSR (wildtype); experiment: Epifluorescence imaging of CaSR mediated ER Ca^2+ dynamics using R-CatchER and Fura-2 in HEK293 cells; type: cell-based; conditions: in the presence of Ca^2+, HEK293 CaSR, R-CatchER
# Method: (§1) Cell culture and transfection. C2C12, HEK293 and HeLa cells were cultured and maintained in Dulbecco's modified Eagle's medium (DMEM) supplemented with 10% fetal bovine serum (FBS) and high glucose (4.5 g/L) at 37° C. R-CatchER, G-CatchER2, G-CEPIA1er, R-CEPIA1er or R-CatchER with GFP-CaSR (wt and mutations) were transfected into cells using Lipofectamine 3000 (Life Technologies), following the manufacturer's instructions. Seed cells onto sterilized 22 mm×40 mm glass microscope slides in 6 cm dishes until about 70% confluency, the day of transfection. The next day, 2 μg of plasmid were mixed with transfection reagent in the reduced serum media Opti-MEM for 4-6 h at 37° C. The media was then replaced with 3 mL of fresh DMEM and incubated at 37° C. for 48 h.
# (§2) Epifluorescence imaging of class C GPCR mediated ER Ca^2+ dynamics using R-CatchER and Fura-2. HEK293 Cells transfected with R-CatchER and GFP-CaSR (wt and mutations) were incubated with Fura-2 for 30 mins at 37° C. then washed with 2 mL of physiological Ringer buffer (10 mM HEPES, 140 mM NaCl, 5 mM KCl, 1.2 mM MgCl2, 1.8 mM CaCl2) at pH 7.4). The coverslips were mounted on a bath chamber and placed on the stage of a Leica DM6100B inverted microscope with a Hamamatsu cooled EM-CCD camera and illuminated with a Till Polychrome V Xenon lamp. Cells were illuminated at 340 nm, 380 nm and 569 nm, in real-time, as cells were exposed to different concentrations of Ca^2+, cinacalcet, Phe, TNCA, or NPS2143.
# CaSR E297K = target: T2, CaSR E297K; experiment: Epifluorescence imaging of CaSR mediated ER Ca^2+ dynamics using R-CatchER, E297K mutant; type: cell-based; conditions: E297K mutant with TNCA (500 μM)
# Method: as §1
# as §2, with “Cells were illuminated at 340 nm, 380 nm and 569 nm, in real-time, as cells were exposed to different concentrations of Ca^2+, cinacalcet, Phe, TNCA, or NPS2143.” left out
# [1] = Calcium (Ca^2+) binding assay: fluorescence/absorbance titration of purified protein
# Method: Calcium (Ca^2+) binding assay. 10 μM protein samples of mApple, EGFP, and mCherry variants were titrated with different concentrations of Ca^2+. Data were fitted with a 1:1 binding equation. Fluorescence intensities were collected using a Spectrofluorimeter (Photon Technology International, Inc.) and the absorbance values of Ca^2+-free and Ca^2+-loaded forms were determined using a Shimadzu UV-1601 spectrophotome.
# Ca^2+ binding assay. Fluorescence measurements of mApple variants with increasing Ca^2+ concentrations were done in order to obtain the affinity of the sensor for Ca^2+ in vitro. Samples of 10 μM mApple variants with 5 μM EGTA were prepared in triplicate in 1 mL volumes in 10 mM Tris, pH 7.4. The samples were placed in quartz fluorescence cuvettes, and metal ion was titrated into each sample, in a stepwise manner, using 0.1 M and 1 M metal stock solutions. The fluorescence response of the indicator to increasing Ca^2+ concentrations was monitored using a fluorescence spectrophotometer (Photon Technology International, Canada) with the Felix32 fluorescence analysis software. The absorbance spectra before and after titration were obtained using a Shimadzu UV-1601 spectrophotometer.
# [2] = pKa determination of the chromophore; type: physicochemical
# Method: pKa determination. To measure the chromophore pKa of mApple, EGFP, and mCherry variants, the proteins were prepared in buffers (sodium acetate buffer for pH 3-5, MES buffer for pH 5-6, HEPES buffer for pH 6.5-8, TRIS buffer for pH 8.5-9) covering a pH range from 3 to 10. All samples were Incubated at 4° C. overnight, then the following day, the absorbance and fluorescence spectra were collected using a Shimadzu UV-1601 spectrophotometer and the Spectrofluorimeter.
# [3] = In vitro kinetics by stopped flow spectrofluorometer; type: binding; conditions: stopped-flow, dead time 2.2 ms, 20° C.
# Method: In vitro kinetics by stopped flow spectrofluorometer. The kinetics were determined by a Hi-Tech SF-61 stopped-flow spectrofluorometer equipped with the mercury-Xe lamp (10 mm path length, dead time of 2.2 ms) at 20° C. For R-CatchER and its variant or R-CEPIA1er, excitation was at 569 nm and a long-pass 590 nm filter was used. For G-CEPIA1er, a 530 nm long-pass filter was set with excitation at 498 nm, while for MCD1, excitation at 587 nm and a long-pass 600 nm filter were applied. For association kinetics, R-CatchER, R-CatchER variant, MCD1, R-CEPIA1er, and G-CEPIA1er were mixed with the same buffer containing an increasing concentration of Ca^2+. For disassociation kinetics, R-CatchER, R-CatchER variant, MCD1, R-CEPIA1er, and G-CEPIA1er in buffers with concentration of Ca^2+ at Kd, were mixed with 5 mM EGTA or buffer. The raw data were fitted using either single exponential for R-CatchER, R-CatchER variant, and MCD1, or double exponential equations for R-CEPIA1er and G-CEPIA1er.
# HeLa cells = experiment: Epifluorescence imaging of mitochondria Ca^2+ dynamics; type: cell-based; conditions: 100 μM histamine
# Method: as §1, with “transfection.” for “transfection. C2C12, HEK293 and”, “DMEM” for “Dulbecco's modified Eagle's medium (DMEM)”, “FBS” for “fetal bovine serum (FBS)”, “Individual plasmids” for “R-CatchER, G-CatchER2, G-CEPIA1er, R-CEPIA1er or R-CatchER with GFP-CaSR (wt and mutations)”
# Epifluorescence imaging of mitochondria Ca^2+ dynamics. The coverslips with HeLa Cells transfected with mitochondria indicators were mounted on a bath chamber and placed on the stage of a Leica DM6100B inverted microscope with a Hamamatsu cooled EM-CCD camera and illuminated with a Till Polychrome V Xenon lamp. Cells were illuminated at 569 nm, in real-time. Fluorescence images of samples were recorded as the concentration of ER Ca^2+ was perturbed by perfusion of 100 μM histamine.
molecule,measurement,setting,value
"O=C(O)[C@@H]1Cc2c([nH]c3ccccc23)CN1 [TNCA, L-1,2,3,4-tetrahydronorharman-3-carboxylic acid]",effect on frequency of ER Ca^2+ oscillations,CaSR (wildtype),increased the frequency
same,Hill coefficient (cooperativity),CaSR E297K,3.08±0.40
B1,Fmax/Fmin,"[1]; mCherry based indicators, Ca^2+ induced fluorescence change",1.13 ± 0.01
same,apparent pKa,[2]; 0 mM Ca^2+,4.31±0.01
same,apparent pKa,[2]; 10 mM Ca^2+,4.30±0.01
same,Ca^2+ association rate kon,[3],≥ 3e+07 M⁻¹ s⁻¹
B2,Fmax/Fmin,[1]; EGFP and mApple variants,3.80
same,Aholo/Aapo,[1]; absorbance at 569,1.60 (569)
same,Kd,"[1]; in vitro, purified protein, read-out: Kd for Ca^2+ binding",290 ± 20 µM
same,fluorescence intensity change of mitochondria targeted indicator,HeLa cells,no fluorescence change was observed
